Results on one substance are retold here after publication PMC8121815 (Nature Communications, 2021).

Common to all, as to test: ITC
On the technique in general: In ITC the heat of successive injections is recorded.

Test [1] deals with human TOM70 (106-608) H583Q, C-terminal His-tagged (human) (UniProt O94826).
Test [2] deals with human TOM70 (106-608) E549A, C-terminal His-tagged (human) (UniProt O94826).
Test [3] deals with human TOM70 (106-608) E477A, C-terminal His-tagged (human) (UniProt O94826).
The target of test [4] is hTOM70 mutant H583Q (human).
Test [5] deals with human TOM70 (106-608) D545A, C-terminal His-tagged (human) (UniProt O94826).
The target of test [6] is human TOM70 (106-608) E549I, C-terminal His-tagged (human) (UniProt O94826).

C-peptide (SARS-CoV-2 orf9b core sequence 44-70), sequence (P0DTD2 44-70 limits assumed): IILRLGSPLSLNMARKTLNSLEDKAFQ

Regarding “C-peptide (SARS-CoV-2 orf9b core sequence 44-70) (from UniProt P0DTD2 44-70)”, the Ka in test [1] is 1.01e+06 M⁻¹; in test [2] it was 43800 M⁻¹; in test [3], 3870 M⁻¹; in test [5], 20100 M⁻¹; in test [6] it was 93800 M⁻¹. The stoichiometry N was found to be 1.5 in test [1]; 1.5 in test [2]; 0 in test [3]; 1 in test [5]; 1.7 in test [6]. The dissociation constant Kd in test [2] stood at 22.8 µM; in test [3], 258 µM; in test [4], 0.99 µM; in test [5], 49.8 µM; in test [6], 10.7 µM.

The term stoichiometry N denotes the number of molecules, sites or subunits per partner or assembly. Usually Kd stands for the equilibrium constant for the complex coming apart.
